For this series, the target named is CTLA-4 Ig functionalized with GzmB substrate (UniProt P16410).
CTLA-4 Ig functionalized with GzmB substrate, sequence (P16410 38-161): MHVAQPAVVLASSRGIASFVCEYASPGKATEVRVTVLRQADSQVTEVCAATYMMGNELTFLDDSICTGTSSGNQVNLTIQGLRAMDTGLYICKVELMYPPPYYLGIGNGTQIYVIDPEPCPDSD

mannose-associated serine protease 1, sequence (P48740 20-699): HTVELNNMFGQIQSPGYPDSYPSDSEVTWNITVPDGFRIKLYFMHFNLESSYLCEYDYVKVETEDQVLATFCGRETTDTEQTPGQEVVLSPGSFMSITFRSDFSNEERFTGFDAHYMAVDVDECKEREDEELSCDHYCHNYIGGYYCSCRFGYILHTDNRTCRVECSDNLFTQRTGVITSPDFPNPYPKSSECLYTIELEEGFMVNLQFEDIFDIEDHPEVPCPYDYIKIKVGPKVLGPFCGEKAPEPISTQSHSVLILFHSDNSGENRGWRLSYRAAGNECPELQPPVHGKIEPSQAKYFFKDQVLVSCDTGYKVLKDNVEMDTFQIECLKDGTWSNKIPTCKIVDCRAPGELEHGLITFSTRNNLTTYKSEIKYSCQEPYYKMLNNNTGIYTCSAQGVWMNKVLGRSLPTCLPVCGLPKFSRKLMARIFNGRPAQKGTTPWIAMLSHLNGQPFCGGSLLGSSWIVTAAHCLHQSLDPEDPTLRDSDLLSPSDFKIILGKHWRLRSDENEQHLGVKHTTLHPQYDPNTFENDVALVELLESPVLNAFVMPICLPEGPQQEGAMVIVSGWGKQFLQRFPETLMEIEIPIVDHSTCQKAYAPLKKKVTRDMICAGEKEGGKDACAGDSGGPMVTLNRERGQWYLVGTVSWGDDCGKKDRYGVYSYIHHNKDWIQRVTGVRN
matrix metalloproteinase 2, sequence (P08253 110-660): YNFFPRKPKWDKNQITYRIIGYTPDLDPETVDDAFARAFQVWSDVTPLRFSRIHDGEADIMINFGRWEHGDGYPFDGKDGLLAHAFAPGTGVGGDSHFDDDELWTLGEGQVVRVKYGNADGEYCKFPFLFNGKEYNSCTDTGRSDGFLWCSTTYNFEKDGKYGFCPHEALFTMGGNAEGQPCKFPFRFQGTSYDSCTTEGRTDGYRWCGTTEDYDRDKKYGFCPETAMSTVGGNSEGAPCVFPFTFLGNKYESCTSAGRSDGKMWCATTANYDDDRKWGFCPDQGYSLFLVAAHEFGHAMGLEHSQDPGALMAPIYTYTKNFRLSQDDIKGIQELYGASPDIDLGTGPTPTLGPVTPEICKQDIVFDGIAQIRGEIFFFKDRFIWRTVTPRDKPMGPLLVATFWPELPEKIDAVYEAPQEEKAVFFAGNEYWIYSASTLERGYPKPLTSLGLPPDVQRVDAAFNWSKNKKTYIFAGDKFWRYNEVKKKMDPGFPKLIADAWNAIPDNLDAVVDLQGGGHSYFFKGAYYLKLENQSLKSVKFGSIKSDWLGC

On to Cathepsin B, for which the “in vitro cleavage assay” value was “no cross-cleavage by matrix, complement, or immune proteases”. granzyme B: the “in vitro cleavage assay” value was “modified CTLA-4 Ig demonstrated specific cleavage by GzmB”.

With mannose-associated serine protease 1, the “in vitro cleavage assay” value is “no cross-cleavage by matrix, complement, or immune proteases”. As to matrix metalloproteinase 2, the “in vitro cleavage assay” value is on record as “no cross-cleavage by matrix, complement, or immune proteases”. The value for matrix metalloproteinase 9 was “no cross-cleavage by matrix, complement, or immune proteases”; that for matrix metalloproteinase 15 was “no cross-cleavage by matrix, complement, or immune proteases”.
